From patent US20230241072A1, “ANTHRACYCLINE DERIVATIVES” (ALMAC DISCOVERY LIMITED, priority 2019, published 2023)

Columns and labels:
[1] = molecular target: ROR1 (Homo sapiens, UniProt Q01973); settings: VNAR domain; data in WO 2019/122447; cited from earlier work
[2] = test system: PA-1; assay: In vitro cell viability assay (Cell Titre Glo), VNAR drug conjugates: PA-1; type: cell-based, human
Method: (§1) In Vitro Cell Viability Assays for Cancer Cells Treated with Anti ROR1 VNAR Drug Conjugates
(§2) Cells were seeded into white, clear bottom 96 well plates (Costar) and incubated at 37° C., 5% CO2 for 24 hours. On the following day, dilution series were set up for each test agent at ×10 working stocks. The dose response ×10 stock was: 10000, 5000, 1000, 500, 100, 50, 10, 5, 1, 0.5 nM etc. 10 μL of the ×10 stock solutions were added to the cell plates (90 μl per well) using a multichannel pipette. […] 100d of vehicle control (PBS) was added to the control wells (columns 11 and 12). Plates were incubated at 37′C, 5% CO2 for 72-96 hours. Promega Cell litre Glo reagent was used as per the manufacturer's instructions to assess cell viability. Briefly, assay plates were removed from incubator and allowed to equilibrate to room temperature before adding […] of room temperature Cell litre Glo reagent to each 100 μl assay well. Plates were placed on a plate shaker for 2 minutes at 600 rpm. Plates were allowed to sit for a further 10 minutes at room temperature prior to measuring luminescence read-out using a Clariostar plate-reader (BMG). Data was analysed by calculating the average for untreated (vehicle only) control wells and determining the % of control for each treated well. % of control data was then plotted against Log [Treatment] concentration and the IC50 value derived using non-linear regression fitting in GraphPad Prism software.
(§3) The following cell lines were used: • Kasumi-2—human B cell leukaemia precursor; • PA-1—human ovarian cancer cell line; • PA-1 ROR1 ko—human ovarian cancer cell line with ROR1 knock-out; • 697—human B cell leukaemia precursor, and • MHH-ES1—human Ewing's sarcoma cell line.

[3] = test system: Kasumi-2; assay: In vitro cell viability assay (Cell Titre Glo), VNAR drug conjugates: Kasumi-2; type: cell-based, human
Method: as §1, §2, §3

[4] = Human plasma stability of protein-PNU conjugates (LC-MS of released payload); type: in vitro ADME; settings: 37° C., up to 168 h, 4 or 2 uM PDC, LLOQ 0.1 or 0.156 uM
Method: Different conjugates were incubated at 37° C. for 168 h in human plasma at a final concentration of 4 μM or 2 μM of protein. Samples were analysed by LC-MS as a function of time up to and including 168 h and the amount of released PNU159682 and EDA-PNU159682 derivative was quantified by reference to calibration standards.

[5] = test system: PA-1 ROR1 ko; assay: In vitro cell viability assay (Cell Titre Glo), VNAR drug conjugates: PA-1 ROR1 ko; type: cell-based, human
Method: as §1, §2, §3

[6] = molecular target: Cathepsin B (Homo sapiens, UniProt P07858); assay: Cathepsin B treatment of protein-PNU conjugates, payload release; type: in vitro ADME; settings: after treatment with Cat B
Source text: Cathepsin B treatment of VNAR-hFc-vc-PAB-EDA-PNU conjugates and the corresponding conjugates of the multimeric proteins liberated free EDA-PNU159682 derivative in a quantitative fashion. Whereas, VNAR-hFc-va-EDA-PNU conjugates and the corresponding conjugates of the multimeric proteins were completely stable to Cathepsin B treatment.
Only the vc-PAB-EDA-PNU releases payload on treatment with CatB as expected for the conditions used in this in vitro assay. The release is quantitative—as the conjugates have a drug to antibody ratio of 2, then twice the concentration of payload released versus the concentration of conjugate is expected after CatB treatment. This expectation matches the data shown in Table 11 for vc-PAB-EDA-PNU conjugates.

[7] = Mouse plasma stability of protein-PNU conjugates (LC-MS of released payload); type: in vitro ADME; settings: 37° C., 4 μM protein
Method: Different P3A1-hFc-PNU conjugates were incubated at 37° C. in mouse plasma at a final concentration of 4 μM of protein. Samples were analysed by LC-MS as a function of time and the amount of released PNU159682 and EDA-PNU159682 derivative was quantified by reference to calibration standards.

[8] = test system: MHH-ES1; assay: In vitro cell viability assay (Cell Titre Glo), VNAR drug conjugates: MHH-ES1; type: cell-based, human
Method: as §1, §2, §3

[9] = test system: 697; assay: In vitro cell viability assay (Cell Titre Glo), VNAR drug conjugates: 697; type: cell-based, human
Method: as §1, §2, §3

[10] = ratio to corresponding non-binding 2V-hFc conjugate

Molecule	binding to ROR1 [1]	IC50 ([2]; Table 5, 96 h) [nM]	ROR1 targeting/2V non-targeting window PA-1 [2, 10]	IC50 ([3]; Table 5, 96 h) [nM]	ROR1 targeting/2V non-targeting window Kasumi-2 [3, 10]	Observed EDA payload release [4]	IC50 ([5]; Table 5, 96 h, PA-1 ROR1 ko) [nM]	ROR1 targeting/2V non-targeting window PA-1 31-J-06 ([5]; ratio to corresponding non-binding 2V-hFc conjugate, PA-1 31-J-06 (ROR1 −/−; matches PA-1 ROR1 ko of Table 5))	EDA released, per cent of theoretical conc of payload ([6]; figure in brackets) [%]	Average Conc EDA Released ([6]; protein 10 uM (2VhFc conjugate 5 uM)) [µM]	Concentration (nM) of free PNU payload detected by LC-MS, 4 h ([7]; 4 h) [nM]	Concentration (nM) of free PNU payload detected by LC-MS, 24 h ([7]; 24 h) [nM]	Concentration (nM) of free PNU payload detected by LC-MS, 48 h ([7]; 48 h) [nM]	Concentration (nM) of free PNU payload detected by LC-MS, 72 h ([7]; 72 h) [nM]	Concentration (nM) of free PNU payload detected by LC-MS, 96 h ([7]; 96 h) [nM]	Concentration (nM) of free PNU payload detected by LC-MS, 120 h ([7]; 120 h) [nM]	IC50 ([8]; Table 5, 96 h) [nM]	ROR1 targeting/2V non-targeting window MHH-ES1 [8, 10]	IC50 ([9]; Table 5, 96 h) [nM]	ROR1 targeting/2V non-targeting window 697 [9, 10]
P3A1: VNAR domain, SEQ ID NO: 43 (protein) VHH: TRVDQTPRTATKETGESLTINCVLTDTSYGLYSTSWFRKNPGTTDWERMSIGGRYVESVNKGAKSFSLRIKDLTVADSATYYCKAREARHPWLRQWYDGAGTVLTVN	bind to ROR1	–	–	–	–	–	–	–	–	–	–	–	–	–	–	–	–	–	–	–
P3A1hFc-PEG4-va-EDA-PNU (conjugate, left off: a dimerising Fc or GST) TRVDQTPRTATKETGESLTINCVLTDTSYGLYSTSWFRKNPGTTDWERMSIGGRYVESVNKGAKSFSLRIKDLTVADSATYYCKAREARHPWLRQWYDGAGTVLTVNGGGGSGGGGSGGGGS	–	0.15	360	2.3	43	no EDA-PNU detected at any time points	11.3	4	1.7	0.36	3	4	1	2	5	3	18	8.4	61	4
